± gives the uncertainty stated by the source.
Assay: amyloid nucleation score (Sup35N fusion, yeast selection) (log enrichment); library NNK3; higher = more nucleation; inactive = no reads after selection
Procedure, shortened: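 DiMSum was used to calculate nucleation scores as log enrichment of output over input reads, centred on the mode score of non-aggregating sequences. Sequences with fewer than 100 input reads were not scored. Input and output came from Illumina sequencing of plasmid inserts in psi-negative yeast expressing peptides of 20 random codons fused to Sup35N, induced 24 hours with 100 μM copper sulfate and then grown 7 days at 30°C on medium lacking adenine and uracil.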

Substance	amyloid nucleation score
RYCGYHGVRFCSVCRFNMSL	inactive
KTSVEISN	inactive
RVFNIEYMLECAFFRTIRD	inactive
HHYLTHNRLVIKHHYRKYYD	inactive
FSNGMVLFF	inactive
VIILTYVSMLTTAHINGWSG	0.309 ± 0.29
RGGCQATVGNALNIRFFAQG	1.72 ± 0.095
VVICILQLHQYFFNYVH	2.11 ± 0.05
LSFFGSYSSSRLF	1.43 ± 0.11
YLVVHW	inactive
VPSVYKKRWWYHKPWHNRHV	inactive
LNHRIWLTLFGSASRLVKFD	inactive
CYSKYSS	inactive
WYRFPCFFLYCDAWMILNFA	inactive
GIYGRTGHSYVF	inactive
TRSFCVSK	inactive
MRLCAGSCAVFMWNVLVMLG	inactive
SYSSDWVLLGGMFFAKY	0.164 ± 0.56
WAYMVNFFRTNLICEGWFDG	-0.841 ± 2.5
YLFLVRSQTLRVRYWTRNPP	inactive
WGCALCSYDACRLES	2.52 ± 0.068

Substance	amyloid nucleation score
STMHELYV	inactive
PSLYDLKRSCWGSWMAYEWK	inactive
CSQIPLHKLTMCMLY	inactive
LLPAI	inactive
YLSSSYVVGDMSCV	inactive
HSSLNGRNG	inactive
CVYFGRVNFTVGLLPSLNGF	1.46 ± 0.14
KSFWVHMTGAFVCARYWCLP	0.97 ± 0.17
ETNQSMY	1.51 ± 0.075
YLLSVYLLVATSCMYGNMGE	inactive
LSMCAVFDRYLWVGSGDITY	inactive
MWVGKHDVYTRDFM	inactive
CVRSTCQALGMGRWEPHCAI	inactive
FSCCITNPTYTYCWEMVGVS	inactive
ANSNRRECQHNS	1.06 ± 0.16
WSTPDFRGLHYSTVFITIFA	0.194 ± 0.51
ANSNVGSLF	inactive
LWRLRAIWVNNVMAVRKFVG	-0.68 ± 1
VPSNLGKPHMCRRSRDYFTA	inactive
FRVTY	inactive
PNPLRLNNIRRVLARKSKVS	inactive

Substance	amyloid nucleation score
NRLCFISAMCNVTYWVICNH	inactive
CYSNSEPISAYDD	inactive
MSMVFIVSCNDDIYTRAR	0.119 ± 0.24
SSSTANYLSIKFSLSLLKYN	0.905 ± 0.14
RTFMYMWRSEIF	inactive
LYGGTAFLLSFCVAE	inactive
TIFVVCIRIFVWFLCYGSDP	0.207 ± 0.23
GYNFNEENINMLHQREFSLS	inactive
VIDWAYSPKPSDLTG	1.09 ± 0.16
RCNISTRFLLLWTFSFLLVY	inactive
LETMN	inactive
YARYMYYATNKINNWVVLKP	inactive
NKGMPGPHGANSRYTGVDVG	inactive
LGGTSNLMFGYMK	inactive
SPRAFTASVEGVSEL	inactive
AALTPNPGVD	inactive
RSTWMAIWKERYMQTGFL	inactive
VRSTFNCITLRTLAIRSFYH	inactive
WHSWAFGTGCGSRTFEG	0.526 ± 0.17
FRPLFSESHYPASLTGTGHN	inactive
VFTDLCTYKTCTYVIPCTAE	inactive

Substance	amyloid nucleation score
CISSGGMLLNSFGSLWA	inactive
YLYRNRS	inactive
SFYYILYTGCVIGIVASLFK	-0.408 ± 0.58
MVSLHYVI	inactive
YSPTAN	inactive
VTAFCWGLQRIVGIECSMLE	inactive
SSLGSETRFSYKRVHIENWR	-0.97 ± 0.9
TYYGCYLVGR	0.01 ± 0.66
SLRYGREIKNMRQNCIDPWC	inactive
SGSAELARLHYRMELKAPYL	inactive
WNLYRFLNW	inactive
MLIGWC	inactive
VQFLRFQVHELFSRPFIA	inactive
AVMDGRNMSYSMYIRCCMWL	2.7 ± 0.074
YYQMRYCQWDAIQVENWVRR	inactive
KYLGG	inactive
NYFQFLKENFVARNKESRRG	inactive
CFKPILDLGSKCLFVLVVGK	inactive

From the supplement of paper PMC12042874
